Experimental data taken from PMC2797370.

B1: prostaglandin endoperoxide synthase-2 (PGHS-2) (Mus musculus) (protein)
chain: ANPCCSNPCQNRGECMSTGFDQYKCDCTRTGFYGENCTTPEFLTRIKLLLKPTPNTVHYILTHFKGVWNIVNNIPFLRSLIMKYVLTSRSYLIDSPPTYNVHYGYKSWEAFSNLSYYTRALPPVADDCPTPMGVKGNKELPDSKEVLEKVLLRREFIPDPQGSNMMFAFFAQHFTHQFFKTDHKRGPGFTRGLGHGVDLNHIYGETLDRQHKLRLFKDGKLKYQVIGGEVYPPTVKDTQVEMIYPPHIPENLQFAVGQEVFGLVPGLMMYATIWLREHNRVCDILKQEHPEWGDEQLFQTSRLILIGETIKIVIEDYVQHLSGYHFKLKFDPELLFNQQFQYQNRIASEFNTLYHWHPLLPDTFNIEDQEYSFKQFLYNNSILLEHGLTQFVESFTRQIAGRVAGGRNVPIAVQAVAKASIDQSREMKYQSLNEYRKRFSLKPYTSFEELTGEKEMAAELKALYSDIDVMELYPALLVEKPRPDAIFGETMVELGAPFSLKGLMGNPICSPQYWKPSTFGGEVGFKIINTASIQSLICNNVKGCPFTSFNVQDPQPTKTATINASASHSRLDDINPTVLIKRRSTEL
B2: prostaglandin endoperoxide synthase-1 (PGHS-1) (Ovis aries) (protein)
chain: ADPGAPAPVNPCCYYPCQHQGICVRFGLDRYQCDCTRTGYSGPNCTIPEIWTWLRTTLRPSPSFIHFLLTHGRWLWDFVNATFIRDTLMRLVLTVRSNLIPSPPTYNIAHDYISWESFSNVSYYTRILPSVPRDCPTPMDTKGKKQLPDAEFLSRRFLLRRKFIPDPQSTNLMFAFFAQHFTHQFFKTSGKMGPGFTKALGHGVDLGHIYGDNLERQYQLRLFKDGKLKYQMLNGEVYPPSVEEAPVLMHYPRGIPPQSQMAVGQEVFGLLPGLMLYATIWLREHNRVCDLLKAEHPTWGDEQLFQTARLILIGETIKIVIEEYVQQLSGYFLQLKFDPELLFGAQFQYRNRIAMEFNQLYHWHPLMPDSFRVGPQDYSYEQFLFNTSMLVDYGVEALVDAFSRQPAGRIGGGRNIDHHILHVAVDVIKESRVLRLQPFNEYRKRFGMKPYTSFQELTGEKEMAAELEELYGDIDALEFYPGLLLEKCHPNSIFGESMIEMGAPFSLKGLLGNPICSPEYWKASTFGGEVGFNLVKTATLKKLVCLNTKTCPYVSFHVPDPRQEDRPGVERPPTEL

Legend:
purified protein [1] = substrate: CCCCC/C=C\C/C=C\C/C=C\C/C=C\CCCC(=O)O; assay: purified protein; settings: heme
purified protein [2] = substrate: CCCCC/C=C\C/C=C\C/C=C\C/C=C\CCCC(=O)Nc1cccc(O)c1; assay: purified protein; settings: heme

Protein | Km (purified protein [1]) | kcat (purified protein [1]) | kcat/Km (purified protein [1]) | Km (purified protein [2]) | kcat (purified protein [2]) | kcat/Km (purified protein [2])
B1 | 2.5 ± 0.4 µM | 47 s⁻¹ | 1.9e+07 M⁻¹ s⁻¹ | – | – | –
B2 | 3.4 ± 0.6 µM | – | – | 15 ± 1 µM | 22 ± 1 s⁻¹ | 1.5e+06 ± 1e+06 M⁻¹ s⁻¹
